Experimental findings from patent publication US20200299407 (published 2020) are described below.

For test [1], the target named is Her2 ECD (Pertuzumab KO)-Fc knob (human). Kind of test: SPR, 25C.
The target of test [2] is Her2 ECD (Trastuzumab KO)-Fc knob (human). Kind of test: SPR. (Surface plasmon resonance follows binding to a sensor surface in real time, without labels.)
The target of test [3] is HER2 ECD (aa 1-629 mature) (human). The test is described as follows: SPR.
Test [4] concerns the target Her2 ECD (Pertuzumab KO)-Fc knob (human). Kind of test: SPR.
The target of test [5] is Her2 ECD (Trastuzumab KO)-Fc knob (human). Kind of test: SPR, 25C.
Test [6] addresses human transferrin receptor (human, UniProt P02786). Kind of test: SPR.

Where a chain is given by its changes, count along the chain named.

The term Kd denotes the concentration at which binding is half-saturated. Low values mean higher affinity, high ones lower affinity. One may read the koff as the rate constant with which the complex falls apart. A high value points to a short-lived complex.

Sequence of human transferrin receptor (P02786 89-760): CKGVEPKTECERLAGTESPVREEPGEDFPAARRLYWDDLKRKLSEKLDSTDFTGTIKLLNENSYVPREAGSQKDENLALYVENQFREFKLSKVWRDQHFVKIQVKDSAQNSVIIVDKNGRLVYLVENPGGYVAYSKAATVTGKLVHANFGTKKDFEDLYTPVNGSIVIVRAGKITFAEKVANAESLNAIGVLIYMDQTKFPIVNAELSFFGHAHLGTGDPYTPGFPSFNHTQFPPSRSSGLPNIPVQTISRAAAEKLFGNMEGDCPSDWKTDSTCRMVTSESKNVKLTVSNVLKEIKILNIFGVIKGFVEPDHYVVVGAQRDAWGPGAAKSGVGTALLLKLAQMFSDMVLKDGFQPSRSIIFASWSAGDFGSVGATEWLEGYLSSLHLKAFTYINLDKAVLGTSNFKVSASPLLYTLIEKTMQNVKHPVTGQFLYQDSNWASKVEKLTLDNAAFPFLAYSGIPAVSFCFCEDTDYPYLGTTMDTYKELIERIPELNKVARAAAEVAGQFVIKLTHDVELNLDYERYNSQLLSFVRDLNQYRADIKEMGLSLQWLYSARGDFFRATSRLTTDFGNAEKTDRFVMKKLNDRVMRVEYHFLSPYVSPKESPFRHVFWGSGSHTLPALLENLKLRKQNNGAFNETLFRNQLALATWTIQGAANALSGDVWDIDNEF

B1: Herceptarg CrossMab Trastuzumab arm (antibody, V domains shown)
VH: QVQLVQSGAEVKKPGASVKVSCKASGFNIKDTYIHWVRQAPGQGLEWMGRIYPTNGYTRYAQKFQGRVTMTRDTSISTAYMELSRLRSDDTAVYYCSRWGGEGFYAMDYWGQGTMVTVSS
VL: DIQLTQPPSVSVAPGQTARITCGASQDVSTAVAWYQQKPGQAPVLVVYSASFLYSGIPSRFSGSRSGTDFTLTISRVEAGDEADYYCQQHYTTPPTFGTGTKVTVLR
In test [1], B1 showed a Kd of 800 pM. That is a sub-nanomolar value.

B2: Pertuzumab (antibody)
chain 1: EVQLVESGGGLVQPGGSLRLSCAASGFTFTDYTMDWVRQAPGKGLEWVADVNPNSGGSIYNQRFKGRFTLSVDRSKNTLYLQMNSLRAEDTAVYYCARNLGPSFYFDYWGQGTLVTVSS
chain 2: DIQMTQSPSSLSASVGDRVTITCKASQDVSIGVAWYQQKPGKAPKLLIYSASYRYTGVPSRFSGSGSGTDFTLTISSLQPEDFATYYCQQYYIYPYTFGQGTKVEIK
For B2, the Kd in test [2] stood at 620 pM; in test [3], 147 pM. Moreover, the binding result in test [4] is reported as “no binding”.

B3: Herceptarg E1 Pertuzumab arm (antibody, V domains shown)
VH: B2 chain 1 with T30A, S103W
VL: B2 chain 2 with I31T, G32A, Y53F, G66R, Y91H, I93T, Y94T, Y96P
B3 yielded a Kd in test [5] of 1320 pM. That is a single-digit nanomolar value.

B4: Herceptarg D1-derived Pertuzumab arm (antibody, V domains shown)
VH: B2 chain 1 with T30N, Y60V, Q62R, S103F
VL: B2 chain 2 with I31T, G32A, Y53F, G66R, Y91H, I93T, Y94T, Y96P
B4 gave a Kd in test [5] of 160 pM.

B5: Herceptarg D1-derived Trastuzumab arm (antibody, V domains shown)
VH: not shown
VL: B2 chain 2 with I31T, G32A, Y53F, G66R, Y91H, I93T, Y94T, Y96P
B5 gave a Kd in test [1] of 600 pM. This lies in the sub-nanomolar range.

B6: Herceptarg G2 Trastuzumab arm (antibody, V domains shown)
VH: not shown
VL: B2 chain 2 with I31T, G32A, Y53F, G66R, Y91H, I93T, Y94T, Y96P
In test [1], B6 had a Kd of 1820 pM.

B7: Herceptarg G2 Pertuzumab arm (antibody, V domains shown)
VH: B2 chain 1 with S58Y, Y60V, Q62R
VL: B2 chain 2 with I31T, G32A, Y53F, G66R, Y91H, I93T, Y94T, Y96P
Molecule B7 displayed a Kd in test [5] of 9650 pM.

B8: Herceptarg CLC Trastuzumab arm (E1) (antibody, V domains shown)
VH: not shown
VL: B2 chain 2 with I31T, G32A, Y53F, G66R, Y91H, I93T, Y94T, Y96P
In test [1], B8 registered a Kd of 720 pM.

B9: Herceptarg CrossMab Pertuzumab arm (antibody)
chain 1: not shown
chain 2: DIQMTQSPSSLSASVGDRVTITCKASQDVSIGVAWYQQKPGKAPKLLIYSASYRYTGVPSRFSGSGSGTDFTLTISSLQPEDFATYYCQQYYIYPYTFGQGTKVEIKSSASTKGPSVFPLAPSSKSTSGGTAALGCLVKDYFPEPVTVSWNSGALTSGVHTFPAVLQSSGLYSLSSVVTVPSSSLGTQTYICNVNHKPSNTKVDKKVEPKSC
Turning to B9, the Kd in test [5] turned out to be 840 pM.

B10: VH23-DANG/VL0(rb) (antibody, V domains shown)
VH: QSMQESGPGLVKPSQTLSLTCTVSGFSLSSYAMSWIRQHPGKGLEWIGYIWSGGSTDYASWAKSRVTISKTSTTVSLKLSSVTAADTAVYYCARRYGTSYPDYGDANGFDPWGQGTLVTVSS
VL: AYDMTQTPASVEVAVGGTVTIKCQASQSISSYLSWYQQKPGQRPKLLIYRASTLASGVSSRFKGSGSGTQFTLTISGVECADAATYYCQQCYSSSNVDNTFGGGTEVVVKR
Take B10: in test [6], the koff is 0.000338 s⁻¹.
